Data on 41 sequences can be found in the nanobody polyreactivity screen of Harvey et al. (2022).

This data set is described as follows: yeast display, Sf9 membrane polyspecificity reagent, FACS + sequencing; frameworks hold sequencing errors. In short, it runs like this: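 Nanobodies from a synthetic yeast display library (Saccharomyces cerevisiae BJ5465), induced 36–48 hours with galactose, were stained 1 hour at 4 °C with 10% biotinylated, detergent-solubilized Sf9 membrane reagent, enriched on streptavidin microbeads, then FACS-sorted. Anti-HA (expression) and streptavidin (reagent binding) fluorescence set low and high (top ~1%) gates. Polyreactivity labels come from the gate of origin. Genes were colony-PCR amplified, MiSeq 2 × 250 sequenced and filtered by CDR length.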
As for “QVQLVESGGGLVQAGGSLRLSCAASGNILGYNAMGWYRQAPGKERELVAAISWIGGSTYYADSVKGRFTISRDNAKNTVYLQMNSLKPEDTAVYYCAARYRTYFTYEFWGQGTQVTVSS”, the “polyreactivity (PSR sort gate)” value was “low polyreactivity”.

For “QVQLVESGGGLVQAGGSLRLSCAASGNILPSNAMGRYREAPGKEWELVAAITWSVGRTYYADSVKGRFTISRDNAKYTVYLQMNSLKPEDTAVYYCAADDYWDDVYYYVTGSTGYDYWGQGTQVTVSS”, the “polyreactivity (PSR sort gate)” value is given as “low polyreactivity”.

Turning to “QVQLVESGGGLVQAGGSLRLSCAASGNILWFNAMGWYRQAPGKERELVASITSSGGRTYYADSVKGRFTISRDNAKNTVYLQMNSLKPEETAVYYCAAEYYYGWTYSGGLGFLGYNYWGQGTQVTVSS”, the “polyreactivity (PSR sort gate)” value is listed as “low polyreactivity”.

For the sequence “QVQLVESGGGLVQAGGSLRLSCAASGNIRYYAMGWYRQAPGKERELVAAITRRSGNTYYADSVKGRFTISRDNAKNTVYLQMNSLKPEDTAVYYCAVVLYTYLTPYYEMDYWGQGTQVTVSS”, the “polyreactivity (PSR sort gate)” value is “high polyreactivity”.

With “QVQLVESGGGLVQAGGSLRLSCAASGNNFETNAMGWYRQAPGKERELVAAISASGGSTYYADSVKGRFTISRDYAKNTVYLQMNSLKPEDTAVYYCAARRAVRLYYWGQGTQVTVSS”, the “polyreactivity (PSR sort gate)” value was “high polyreactivity”.

Consider “QVQLVESGGGLVQAGGSLRLSCAASGNNFSAYAMGWYRQAPGKERELVATITSGGRTYYADSVKGRFTISRDNAKNTVYLQMNSLKPEDTAVYYCAADGPYYSPYYYWGQGTQVTVSS”, for which the “polyreactivity (PSR sort gate)” value is given as “low polyreactivity”.

As to “QVQLVESGGGLVQAGGSLRLSCAASGNNLRYYAMGWYRQAPGKERELVAAITSSGGSTYYADSVKGRFTISRDNAKNTVYLKMNSLKPEDTAVYYCAAVFSYSRYNYWGQGTQVTVSS”, the “polyreactivity (PSR sort gate)” value is reported as “high polyreactivity”.

On to “QVQLVESGGGLVQAGGSLRLSCAASGNTFAGNAMGWYRLAPGKERELVAAISYSGGSTYYADSVKGRFTISRDNAKNNVYLQMNSLKPEDTAVYYCNAPQPGNGRTRSRYYYWGQGTQVTVSS”, for which the “polyreactivity (PSR sort gate)” value was “high polyreactivity”.

For the sequence “QVQLVESGGGLVQAGGSLRLSCAASGNTFDFYAMGWYRQAPGKEREFVAAISNGGSTTYADSVKGRFTISRDNAKNTVYLQMNSLKPEDTAVYYCAADPRNAEYDDASMDYWGQGTQVTVSS”, the “polyreactivity (PSR sort gate)” value was “high polyreactivity”.

On to “QVQLVESGGGLVQAGGSLRLSCAASGNTFDIYAMGWYRQAPGKERELVAAISSSGGSTYYADSVKGRFTISRDNAKNTVYLQMNSLKPEDTAVYYFNARHRQWARGYWGQGTQVTVSS”, for which the “polyreactivity (PSR sort gate)” value is “high polyreactivity”.

In the case of “QVQLVESGGGLVQAGGSLRLSCAASGNTFDVYAMGWYRQAPGKEREFVARISGRVGSTYYADSVKGRFTISRDNAKNTVYLQMNSLKPEDTAVYYCAARGRVKYVYGGFGYWGQGTQVTVSS”, the “polyreactivity (PSR sort gate)” value was “high polyreactivity”.

With “QVQLVESGGGLVQAGGSLRLSCAASGNTFEDYAMGWYRQAPGKERELVAAINSGGSTNYADSVKGRFTISRDNAKNTVYLQMNSLKPEDTAVYYCAAEPGEGFDYWGQGTQVTVSS”, the “polyreactivity (PSR sort gate)” value is recorded as “low polyreactivity”.

Turning to “QVQLVESGGGLVQAGGSLRLSCAASGNTFEYYVMGWYRQAPGKERELVAAITWSTGSTYYADSVKGRFTISRDNAKNTVYLQKNSLKPEDTAVYYCAALYYFIFGRPTRFDYWGQGTQVTVSS”, the “polyreactivity (PSR sort gate)” value is given as “low polyreactivity”.

“QVQLVESGGGLVQAGGSLRLSCAASGNTFFYYAMGWYRQAPGKERELVAAINRSGGSTYYADSVKGRFTISRDNAKNTVYLQMNSLKPEDTAVYYCARVLPGGWKSRISDYWGQGTQVTVSS”: the “polyreactivity (PSR sort gate)” value is recorded as “low polyreactivity”.

As to “QVQLVESGGGLVQAGGSLRLSCAASGNTFGIYAMGWYRPAPGKERELVAAISSGTSTNYADSVKGRFTISRDNAKNTVYLQMNSLKPEDTAVYYCNADDQYQDVREDYWGQGTQVTVSS”, the “polyreactivity (PSR sort gate)” value is reported as “low polyreactivity”.

Consider “QVQLVESGGGLVQAGGSLRLSCAASGNTFGNYGMGWYRQAPGKEREFVAAITSRGTSSYYADSVKGRFTISRDNAKNTVYLQMNSLKPEDTAVYYCNARPRYKYPRYDYWGQGTQVTVSS”, for which the “polyreactivity (PSR sort gate)” value is reported as “high polyreactivity”.

With “QVQLVESGGGLVQAGGSLRLSCAASGNTFGYYALGWYRQAPGKERELVAGISSGGSTNYADSVKGRFTISRDNAKKTVYFQMNSLKPEDTAVYYCNARRYWLRYDYWGQVTQVTVSS”, the “polyreactivity (PSR sort gate)” value is reported as “low polyreactivity”.

Take “QVQLVESGGGLVQAGGSLRLSCAASGNTFHSYVMGWYRQAPGKERELVAAITSGGSTYYADSVKGRFTISRDNAKNTVYLQMNSLKPEDTAVYYCAVDAWTGESYWEHYYWGQGTQVTVSS”: the “polyreactivity (PSR sort gate)” value is listed as “low polyreactivity”.

Regarding “QVQLVESGGGLVQAGGSLRLSCAASGNTFIDYAMGWYRQAPGKETELVAAITRGGRTNYADSVKGRFTISRDNAKNTVYLQMNSLKPEDTAVYYCAAALRRRRADFDYWGQGTQVTVSS”, the “polyreactivity (PSR sort gate)” value is reported as “high polyreactivity”.

As for “QVQLVESGGGLVQAGGSLRLSCAASGNTFIRYAMGWYRQAPGKEREFVATITKRGGSTYYADSVKGRFTISRDNAKNTVYLQMNSLKPEDTAVYYCARGPSGTPNGNTPYGDNRYNSWGQGTQVTVSS”, the “polyreactivity (PSR sort gate)” value is listed as “low polyreactivity”.

As to “QVQLVESGGGLVQAGGSLRLSCAASGNTFKYYAMGWYRQAPGKERELVAAISYSGGSTYYADSVKGRFTISRDNAKNTVYFQMNSLKPEDTAVYYCAADLDSERYFLGQGTQVTVSS”, the “polyreactivity (PSR sort gate)” value is recorded as “low polyreactivity”.

With “QVQLVESGGGLVQAGGSLRLSCAASGNTFLPYAMGWYRQAPGKERELVAAISWSGGSTYYADSVKGRFTISRDNAKNTVYLQMNSLKPEDTAVYYCARRGYQRYLSSYYYWGQGTQVTVSS”, the “polyreactivity (PSR sort gate)” value is “high polyreactivity”.

With “QVQLVESGGGLVQAGGSLRLSCAASGNTFLYYAMGWYRQAPGKEMELVASINLSDGSTYYADSVKGRFTISRDNAKNTVYLQMNSLKPEDTAVYYCAAVYGGYTIYDYWGQGTQVTVSS”, the “polyreactivity (PSR sort gate)” value is “low polyreactivity”.

As to “QVQLVESGGGLVQAGGSLRLSCAASGNTFNKYAMGWYRQAPGKERELVAAISYSGGSTYYADSVKGRFTISRDNAKNTVYLQMNSLKPEDTAVYYCNAVYYVYPRRYDYWGQGTQVSVSS”, the “polyreactivity (PSR sort gate)” value was “high polyreactivity”.

As for “QVQLVESGGGLVQAGGSLRLSCAASGNTFNPNAMGWYRQAPGKERELVAVIRFRGGSTYYADSVKGRFTISRDNAKNTVYLQMNSLKTEDTAVYDCAADFLYYYLRYYYWGQGTQVTVSS”, the “polyreactivity (PSR sort gate)” value is given as “high polyreactivity”.

“QVQLVESGGGLVQAGGSLRLSCAASGNTFPLYAMGWYRQAPGKEREMVAAITSSAGSTYYADSVKGRFTISRDNAKNTVYLQMNSLKPEDTAVYYCNARRSDGKVVGYSYSHRNVEYWGQGTQVTVSS”: the “polyreactivity (PSR sort gate)” value is “low polyreactivity”.

Consider “QVQLVESGGGLVQAGGSLRLSCAASGNTFPPNAMGWSRQAPGKERELVAAISWSGDSTYYADSVKGRFTISRDNAKNTVYLQMNSLKPEDTAVYYCAAAIFGEYEYWGQGTQVTVSS”, for which the “polyreactivity (PSR sort gate)” value was “low polyreactivity”.

As to “QVQLVESGGGLVQAGGSLRLSCAASGNTFPPNAMGWYRQAPGKERELVAAISWSGDSTYYADSVKGRFTISRDNAKNTVYLQMNSLKPEDTAVYYCAAAIFGEYEYWGQGTQVTVSS”, the “polyreactivity (PSR sort gate)” value is listed as “low polyreactivity”.

For “QVQLVESGGGLVQAGGSLRLSCAASGNTFREYTMGWYRQAPGKERELVAGISGSGGRTYYADSVKGRFTISRDNAKNTVYLQMNSLKPEDTAVYYCNARWYYGIGYNYWGQGTQVSVSS”, the “polyreactivity (PSR sort gate)” value is “high polyreactivity”.

For “QVQLVESGGGLVQAGGSLRLSCAASGNTFRWYDMGWYRQAPGKERELVAGITRVGCTNYADSVKGRFTISRDNAKNTVYLQMNSLKPEDTAVYYCAARPRWFYGYPYGIIGYDYWGQGTQVTVSS”, the “polyreactivity (PSR sort gate)” value is reported as “high polyreactivity”.

Turning to “QVQLVESGGGLVQAGGSLRLSCAASGNTFSTNAMGWYRHAPGKERELVASISTNGGSTYYADSVKGRFTISRDNAKQTVYLQKNSLKPEDTAVYYCAAYVDWGVWAYLYEYWGQGTQVTVSS”, the “polyreactivity (PSR sort gate)” value is reported as “low polyreactivity”.

“QVQLVESGGGLVQAGGSLRLSCAASGNTFTFYAMGWYRQAPGKERELVASITGRGGSTYYADSVKGRFTISRDNAKNTVYLQMNSLKPEDTAVYYCNADLPAYGLQGDDYWGQGTQVTVSS”: the “polyreactivity (PSR sort gate)” value is “low polyreactivity”.

“QVQLVESGGGLVQAGGSLRLSCAASGNTFTYYAMGWYRQAPGKERELVAAINIDVASTYYADSVKGRFTISRDIAKNTVYLQMNSLKPEDTAVYYCAAEVGVYPVYWYDYWGQGTQVTVSS”: the “polyreactivity (PSR sort gate)” value was “low polyreactivity”.

For “QVQLVESGGGLVQAGGSLRLSCAASGNTFVKYTMGWYRQAPGKERELVAAITWSGGSTSYADSVKGRFTLSRDNAKNTVYLQMNSLKPEDTAVYYCAAAWSHSRWDTHDYWGQGTQVTVSS”, the “polyreactivity (PSR sort gate)” value is listed as “low polyreactivity”.

As to “QVQLVESGGGLVQAGGSLRLSCAASGNTFWFYGMGWYRQAPGKERELVAAITSGGSTDYADSVKGRFTISRDNAKNTVYLLLNSLKPEDTAVYYCAAEPVAYYGSSYGYWGQGTQVTVSS”, the “polyreactivity (PSR sort gate)” value is given as “low polyreactivity”.

Regarding “QVQLVESGGGLVQAGGSLRLSCAASGNTFWGNAMGWYRQAPGKERELVATISASSGSTYYADSVKGRFTISRDNAKNTVYLQMNSLKPEDTAVYYCAKTALRYLKHGRTKGDYWGQGTQVTVSS”, the “polyreactivity (PSR sort gate)” value is given as “low polyreactivity”.

“QVQLVESGGGLVQAGGSLRLSCAASGNTFWQYAMGWYRQAPGKERELVAAITRSTGSTYYADSVKGRFTISRDNAKNTVYLQMNSLKPEDTAVYYCAADFYRHYFRVDSWGQGTQVTVSS”: the “polyreactivity (PSR sort gate)” value was “low polyreactivity”.

“QVQLVESGGGLVQAGGSLRLSCAASGNTFWRYTMGWYRQAPGKERELVAAISSSGGSTYYADSVKGRFTISRDNAKNTVYLQMNSLKPEDTAVYYCAAERRLYKIFSYGYWGQGTQVTVSS”: the “polyreactivity (PSR sort gate)” value was “high polyreactivity”.

As to “QVQLVESGGGLVQAGGSLRLSCAASGNTFYANTMGWYRQARNERELVAAITSGTYADSVKGRFTISRDNAKNTVYLQMNSQKPEDTAVYYCAREESLYVTDPGPSKLDYWGQGTQVTVSS”, the “polyreactivity (PSR sort gate)” value is reported as “low polyreactivity”.

As to “QVQLVESGGGLVQAGGSLRLSCAASGNTFYAYAMGWYRQAPGKERELVAAIARGGNTYYADSVKGRFTISRDNAKNTVYLQMNSLKPEDTAVYYCHAYYPIRSSPYGYYYWGQGTQVTVSS”, the “polyreactivity (PSR sort gate)” value is “high polyreactivity”.

Regarding “QVQLVESGGGLVQAGGSLRLSCAASGNTFYGYAMGWNRQAPGKERELVASITLSGDSTYYADSVKGRFTISRDNEKNTVYLQMNSLKPEDTAVYDCAGVYTYPLGYYHYTYDYWGQGTQVTVSS”, the “polyreactivity (PSR sort gate)” value is “low polyreactivity”.
